From US20170362325A1

Biological target: CD18 (Integrin beta-2) (human) (UniProt P05107)
Test: cell-based or functional assay

UniProt P05107, sequence (P05107 23-769): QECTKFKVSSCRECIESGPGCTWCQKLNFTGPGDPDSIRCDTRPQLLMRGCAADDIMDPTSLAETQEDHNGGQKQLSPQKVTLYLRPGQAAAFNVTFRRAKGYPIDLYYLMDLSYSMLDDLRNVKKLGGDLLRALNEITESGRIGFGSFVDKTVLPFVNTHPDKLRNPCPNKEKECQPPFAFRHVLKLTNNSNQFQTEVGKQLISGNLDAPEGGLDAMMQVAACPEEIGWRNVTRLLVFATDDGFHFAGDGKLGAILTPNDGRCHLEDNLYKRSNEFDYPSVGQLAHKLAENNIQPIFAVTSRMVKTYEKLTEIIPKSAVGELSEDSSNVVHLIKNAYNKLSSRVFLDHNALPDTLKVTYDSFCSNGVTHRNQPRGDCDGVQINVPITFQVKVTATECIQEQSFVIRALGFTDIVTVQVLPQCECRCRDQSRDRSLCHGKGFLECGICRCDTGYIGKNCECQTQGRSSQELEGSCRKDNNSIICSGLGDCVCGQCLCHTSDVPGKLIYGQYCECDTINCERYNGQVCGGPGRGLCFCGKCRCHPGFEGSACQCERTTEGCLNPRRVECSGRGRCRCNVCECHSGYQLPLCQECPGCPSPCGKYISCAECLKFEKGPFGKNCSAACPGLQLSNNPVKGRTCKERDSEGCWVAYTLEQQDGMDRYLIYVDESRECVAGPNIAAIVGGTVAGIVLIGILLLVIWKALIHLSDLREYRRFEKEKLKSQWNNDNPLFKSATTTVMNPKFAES

3H-thymidine uptake (cpm), PBMC + HUVEC + PSMA×CD3, off target activation (FIG. 3A; control about 30000 cpm): < 10000 cpm
Substance: anti-CD18 antibody molecule TS 1/18
